In this assay the test system is MD-2. The assay is described as follows: Formation of [^14C]-LOS-MD-2 complex monitored by gel filtration chromatography. The settings on record: 30 min, 37° C., Sephacryl S100. Type of assay: binding, human. Here is the method: In FIG. 2, a bioactive complex (Mr˜25,000) containing MD-2 and [^14C]-LOS is formed by incubation of [^14C]-LOS-sCD14 with wt, but not C95Y, MD-2. In FIG. 2A, dialyzed control insect cell medium (◯) or medium containing wt (♦) or C95Y ( ? ) MD-2 was incubated for 30 min, 37° C. with (1:1 vol/vol) [^14C]-LOS-sCD14 in HBSS+, 10 mM HEPES and chromatographed on Sephacryl S100. Column fractions were analyzed for [^14C]-LOS. Identical results were obtained in analytical (5 ng [^14C]-LOS/ml+200 μl culture medium) or more preparative runs (reagents concentrated 20×). […] Cell activation was measured by IL-8 accumulation. […]
Purified [^14C]-LOSagg or [^14C]-LOS-sCD14 (3 ng LOS/ml)+/−indicated proteins (30 ng/ml LBP, 250 ng/ml sCD14, 60 μl culture medium) were incubated at 37° C. for 30 min. After this incubation, samples were analyzed by gel filtration chromatography to monitor formation of [^14C]-LOS-MD-2 and by incubation with HEK/TLR4 cells to measure cell activation.
Columns of Sephacryl HR S200 (1.6 cm×30 cm) or S100 (1.0 cm×60 cm) were pre-equilibrated in 10 mM HEPES, HBSS^++/−0.1% HSA. […] Aliquots of the collected fractions were analyzed by liquid scintillation spectroscopy using a Beckman LS liquid scintillation counter to detect [^14C]-LOS. […]
Background: SEC sorts molecules by how far they enter the pores of the column.

B1: wt MD-2: soluble polyhistidine-tagged recombinant wild-type MD-2 in conditioned insect cell culture medium (protein)
chain: QKQYWVCNSSDASISYTYCDKMQYPISINVNPCIELKRSKGLLHIFYIPRRDLKQLYFNLYITVNTMNLPKRKEVICRGSDDDYSFCRALKGETVNTTISFSFKGIKFSKGKYKCVVEAISGSPEEMLFCLEFVILHQPNSNHHHHHH
For B1, the “reaction with [^14C]-LOS-sCD14 to generate new Mr˜25,000 [^14C]-LOS-containing complex” value is “efficiently generated”.
